Article PMC7619307, “The Golgi vesicle tether p115 can bind directly to the ER exit site organiser Sec16A” (Journal of cell science, 2026)

B1: full-length p115–GFP (wild type) [human] / endogenous Sec16A (HEK293T) [human (endogenous in HEK293T)] (parent complex)
chain 1: MNFLRGVMGGQSAGPQHTEAETIQKLCDRVASSTLLDDRRNAVRALKSLSKKYRLEVGIQAMEHLIHVLQTDRSDSEIIGYALDTLYNIISNEEEEEVEENSTRQSEDLGSQFTEIFIKQQENVTLLLSLLEEFDFHVRWPGVKLLTSLLKQLGPQVQQIILVSPMGVSRLMDLLADSREVIRNDGVLLLQALTRSNGAIQKIVAFENAFERLLDIISEEGNSDGGIVVEDCLILLQNLLKNNNSNQNFFKEGSYIQRMKPWFEVGDENSGWSAQKVTNLHLMLQLVRVLVSPTNPPGATSSCQKAMFQCGLLQQLCTILMATGVPADILTETINTVSEVIRGCQVNQDYFASVNAPSNPPRPAIVVLLMSMVNERQPFVLRCAVLYCFQCFLYKNQKGQGEIVSTLLPSTIDATGNSVSAGQLLCGGLFSTDSLSNWCAAVALAHALQENATQKEQLLRVQLATSIGNPPVSLLQQCTNILSQGSKIQTRVGLLMLLCTWLSNCPIAVTHFLHNSANVPFLTGQIAENLGEEEQLVQGLCALLLGISIYFNDNSLESYMKEKLKQLIEKRIGKENFIEKLGFISKHELYSRASQKPQPNFPSPEYMIFDHEFTKLVKELEGVITKAIYKSSEEDKKEEEVKKTLEQHDNIVTHYKNMIREQDLQLEELRQQVSTLKCQNEQLQTAVTQQVSQIQQHKDQYNLLKIQLGKDNQHQGSYSEGAQMNGIQPEEIGRLREEIEELKRNQELLQSQLTEKDSMIENMKSSQTSGTNEQSSAIVSARDSEQVAELKQELATLKSQLNSQSVEITKLQTEKQELLQKTEAFAKSVEVQGETETIIATKTTDVEGRLSALLQETKELKNEIKALSEERTAIKEQLDSSNSTIAILQTEKDKLELEITDSKKEQDDLLVLLADQDQKILSLKNKLKDLGHPVEEEDELESGDQEDEDDESEDPGKDLDHI
chain 2: MQPPPQTVPSGMAGPPPAGNPRSVFWASSPYRRRANNNAAVAPTTCPLQPVTDPFAFSRQALQSTPLGSSSKSSPPVLQGPAPAGFSQHPGLLVPHTHARDSSQGPCEPLPGPLTQPRAHASPFSGALTPSAPPGPEMNRSAEVGPSSEPEVQTLPYLPHYIPGVDPETSHGGHPHGNMPGLDRPLSRQNPHDGVVTPAASPSLPQPGLQMPGQWGPVQGGPQPSGQHRSPCPEGPVPSGVPCATSVPHFPTPSILHQGPGHEQHSPLVAPPAALPSDGRDEVSHLQSGSHLANNSDPESTFRQNPRIVNHWASPELRQNPGVKNEHRPASALVNPLARGDSPENRTHHPLGAGAGSGCAPLEADSGASGALAMFFQGGETENEENLSSEKAGLSGQADFDDFCSSPGLGRPPAPTHVGAGSLCQALLPGPSNEAAGDVWGDTASTGVPDASGSQYENVENLEFVQNQEVLPSEPLNLDPSSPSDQFRYGPLPGPAVPRHGAVCHTGAPDATLHTVHPDSVSSSYSSRSHGRLSGSARPQELVGTFIQQEVGKPEDEASGSFFKQIDSSPVGGETDETTVSQNYRGSVSQPSTPSPPKPTGIFQTSANSSFEPVKSHLVGVKPFEADRANVVGEVRETCVRQKQCRPAAALPDASPGNLEQPPDNMETLCAPQVCPLPLNSTTEAVHMLPHAGAPPLDTVYPAPEKRPSARTQGPVKCESPATTLWAQSELPDFGGNVLLAPAAPALYVCAKPQPPVVQPPEEAMSGQQSRNPSSAAPVQSRGGIGASENLENPPKMGEEEALQSQASSGYASLLSSPPTESLQNPPVLIAQPDHSYNLAQPINFSVSLSNSHEKNQSWREALVGDRPAVSSWALGGDSGENTSLSGIPTSSVLSLSLPSSVAQSNFPQGSGASEMVSNQPANLLVQPPSQPVPENLVPESQKDRKAGSALPGFANSPAGSTSVVLVPPAHGTLVPDGNKANHSSHQEDTYGALDFTLSRTLENPVNVYNPSHSDSLASQQSVASHPRQSGPGAPNLDRFYQQVTKDAQGQPGLERAQQELVPPQQQASPPQLPKAMFSELSNPESLPAQGQAQNSAQSPASLVLVDAGQQLPPRPPQSSSVSLVSSGSGQAAVPSEQPWPQPVPALAPGPPPQDLAAYYYYRPLYDAYQPQYSLPYPPEPGAASLYYQDVYSLYEPRYRPYDGAASAYAQNYRYPEPERPSSRASHSSERPPPRQGYPEGYYSSKSGWSSQSDYYASYYSSQYDYGDPGHWDRYHYSARVRDPRTYDRRYWCDAEYDAYRREHSAFGDRPEKRDNNWRYDPRFTGSFDDDPDPHRDPYGEEVDRRSVHSEHSARSLHSAHSLASRRSSLSSHSHQSQIYRSHNVAAGSYEAPLPPGSFHGDFAYGTYRSNFSSGPGFPEYGYPADTVWPAMEQVSSRPTSPEKFSVPHVCARFGPGGQLIKVIPNLPSEGQPALVEVHSMEALLQHTSEQEEMRAFPGPLAKDDTHKVDVINFAQNKAMKCLQNENLIDKESASLLWNFIVLLCRQNGTVVGTDIAELLLRDHRTVWLPGKSPNEANLIDFTNEAVEQVEEEESGEAQLSFLTGGPAAAASSLERETERFRELLLYGRKKDALESAMKNGLWGHALLLASKMDSRTHARVMTRFANSLPINDPLQTVYQLMSGRMPAASTCCGDEKWGDWRPHLAMVLSNLNNNMDVESRTMATMGDTLASRGLLDAAHFCYLMAQAGFGVYTKKTTKLVLIGSNHSLPFLKFATNEAIQRTEAYEYAQSLGAETCPLPSFQVFKFIYSCRLAEMGLATQAFHYCEAIAKSILTQPHLYSPVLISQLVQMASQLRLFDPQLKEKPEEESLAAPTWLVHLQQVERQIKEGAGVWHQDGALPQQCPGTPSSEMEQLDRPGLSQPGALGIANPLLAVPAPSPEHSSPSVRLLPSAPQTLPDGPLASPARVPMFPVPLPPGPLEPGPGCVTPGPALGFLEPSGPGLPPGVPPLQERRHLLQEARSPDPGIVPQEAPVGNSLSELSEENFDGKFANLTPSRTVPDSEAPPGWDRADSGPTQPPLSLSPAPETKRPGQAAKKETKEPKKGESWFFRWLPGKKKTEAYLPDDKNKSIVWDEKKNQWVNLNEPEEEKKAPPPPPTSMPKTVQAAPPALPGPPGAPVNMYSRRAAGTRARYVDVLNPSGTQRSEPALAPADFVAPLAPLPIPSNLFVPTPDAEEPQLPDGTGREGPAAARGLANPEPAPEPKVLSSAASLPGSELPSSRPEGSQGGELSRCSSMSSLSREVSQHFNQAPGDLPAAGGPPSGAMPFYNPAQLAQACATSGSSRLGRIGQRKHLVLN
B2: full-length p115–GFP (wild type) [human] / Sec13 [human (endogenous in HEK293T)] (parent complex)
chain 1: B1 chain 1
chain 2: MVSVINTVDTSHEDMIHDAQMDYYGTRLATCSSDRSVKIFDVRNGGQILIADLRGHEGPVWQVAWAHPMYGNILASCSYDRKVIIWREENGTWEKSHEHAGHDSSVNSVCWAPHDYGLILACGSSDGAISLLTYTGEGQWEVKKINNAHTIGCNAVSWAPAVVPGSLIDHPSGQKPNYIKRFASGGCDNLIKLWKEEEDGQWKEEQKLEAHSDWVRDVAWAPSIGLPTSTIASCSQDGRVFIWTCDDASSNTWSPKLLHKFNDVVWHVSWSITANILAVSGGDNKVTLWKESVDGQWVCISDVNKGQGSVSASVTEGQQNEQ

Variants of: B1
Assay: co-precipitation with p115–GFP, volcano plot of protein enrichment; HEK293T cells; means of biological triplicates; read off a plot

Variant | screen value
chain 1 Q462D | ~6.1

Variants of: B2
Assay: as above

Variant | screen value
chain 1 Q462D | ~5.8
